Values of other authors as cited in paper PMC9638026.

Molecular target: TIRR (Homo sapiens) (UniProt Q9BRJ7)
Conditions: cited from earlier work

Sequence of 53BP1 (Q12888 whole entry): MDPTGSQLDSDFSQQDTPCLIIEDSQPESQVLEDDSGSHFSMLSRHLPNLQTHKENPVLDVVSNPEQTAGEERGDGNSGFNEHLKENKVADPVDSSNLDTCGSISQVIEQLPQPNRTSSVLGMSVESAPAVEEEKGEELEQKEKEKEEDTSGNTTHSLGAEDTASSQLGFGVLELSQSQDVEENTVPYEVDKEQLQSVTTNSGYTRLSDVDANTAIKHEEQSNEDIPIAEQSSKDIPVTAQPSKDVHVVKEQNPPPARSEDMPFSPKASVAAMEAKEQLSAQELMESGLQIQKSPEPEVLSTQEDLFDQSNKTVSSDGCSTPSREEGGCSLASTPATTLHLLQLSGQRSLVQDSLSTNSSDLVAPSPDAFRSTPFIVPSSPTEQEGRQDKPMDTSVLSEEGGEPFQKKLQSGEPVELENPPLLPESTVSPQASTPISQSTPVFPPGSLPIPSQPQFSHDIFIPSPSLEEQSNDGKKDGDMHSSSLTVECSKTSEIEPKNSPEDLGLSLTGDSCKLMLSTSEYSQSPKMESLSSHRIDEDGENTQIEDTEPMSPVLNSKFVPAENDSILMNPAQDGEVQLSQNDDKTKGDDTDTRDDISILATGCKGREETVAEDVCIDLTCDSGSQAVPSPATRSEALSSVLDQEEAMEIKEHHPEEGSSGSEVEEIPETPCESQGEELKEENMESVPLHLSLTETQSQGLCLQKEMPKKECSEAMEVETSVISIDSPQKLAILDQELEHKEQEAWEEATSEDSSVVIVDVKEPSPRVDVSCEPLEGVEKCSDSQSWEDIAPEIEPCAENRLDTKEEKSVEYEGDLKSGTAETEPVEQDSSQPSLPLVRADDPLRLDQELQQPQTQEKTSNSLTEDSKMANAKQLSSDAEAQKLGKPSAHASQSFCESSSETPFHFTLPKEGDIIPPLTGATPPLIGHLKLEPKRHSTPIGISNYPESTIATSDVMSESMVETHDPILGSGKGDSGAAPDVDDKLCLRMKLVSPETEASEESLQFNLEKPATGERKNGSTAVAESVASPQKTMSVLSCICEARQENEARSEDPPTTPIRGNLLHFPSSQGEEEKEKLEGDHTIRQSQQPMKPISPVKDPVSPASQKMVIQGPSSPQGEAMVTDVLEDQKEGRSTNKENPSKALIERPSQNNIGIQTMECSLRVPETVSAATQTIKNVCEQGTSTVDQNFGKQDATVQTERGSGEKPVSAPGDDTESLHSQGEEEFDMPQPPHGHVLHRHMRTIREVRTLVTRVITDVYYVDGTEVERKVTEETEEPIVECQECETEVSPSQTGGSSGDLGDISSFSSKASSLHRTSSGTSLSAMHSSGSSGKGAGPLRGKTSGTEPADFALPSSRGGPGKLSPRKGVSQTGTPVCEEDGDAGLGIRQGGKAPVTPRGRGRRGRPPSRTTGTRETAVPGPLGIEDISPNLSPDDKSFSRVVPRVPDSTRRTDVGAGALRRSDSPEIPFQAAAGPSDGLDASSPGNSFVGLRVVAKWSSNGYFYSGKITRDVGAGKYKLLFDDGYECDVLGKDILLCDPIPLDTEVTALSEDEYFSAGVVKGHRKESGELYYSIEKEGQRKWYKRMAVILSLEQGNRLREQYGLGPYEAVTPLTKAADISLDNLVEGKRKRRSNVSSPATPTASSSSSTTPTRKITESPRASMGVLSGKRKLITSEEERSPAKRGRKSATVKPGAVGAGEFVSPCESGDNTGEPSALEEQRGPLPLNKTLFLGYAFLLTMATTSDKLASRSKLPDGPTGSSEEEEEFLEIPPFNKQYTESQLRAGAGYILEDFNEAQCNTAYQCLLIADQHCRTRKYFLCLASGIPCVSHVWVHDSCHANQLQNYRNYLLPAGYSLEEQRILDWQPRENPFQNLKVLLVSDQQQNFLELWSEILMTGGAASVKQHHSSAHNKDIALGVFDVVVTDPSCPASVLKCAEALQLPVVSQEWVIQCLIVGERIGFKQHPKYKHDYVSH
Sequence of TIRR (Homo sapiens) (Q9BRJ7 whole entry): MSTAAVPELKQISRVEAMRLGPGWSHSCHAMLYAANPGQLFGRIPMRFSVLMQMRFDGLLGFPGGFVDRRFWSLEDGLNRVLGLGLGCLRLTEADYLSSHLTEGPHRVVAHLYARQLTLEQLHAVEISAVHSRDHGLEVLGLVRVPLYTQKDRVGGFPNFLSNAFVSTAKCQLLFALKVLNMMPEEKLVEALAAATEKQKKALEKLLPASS

53BP1 (from UniProt Q12888)
Kd: 1000 nM
